# Reference: the RNAGym collection of RNA variant scans (doi:10.7554/elife.80360)
# B1: Twister Ribozyme (parent)
# chain: AACACUGCCAAUGCCGGUCCCAAGCCCGGAUAAAAGUGGAGGGGGCGG
# Variants of: B1
# Experiment: self-cleavage, relative activity (ratio to wild type); higher = more cleavage; co-transcriptional
row,Variant,self-cleavage
1,A2U A23G,0.0976
2,C3A C26U,0.132
3,A2G A10U,0.346
4,A2G A34G,0.192
5,A2G A34C,0.151
6,C3U G16A,0.248
7,C3U G16C,0.163
8,C3U G16U,0.183
9,C3G G7A,0.0769
10,C3G G7C,0.0501
11,C3G G17A,0.213
12,C3A G43A,0.0599
13,A2G G7U,0.0648
14,A2U C3U,0.221
15,A2U C3G,0.113
16,A2U C3A,0.077
17,C3U G17A,0.174
18,A2U U37A,0.202
19,C3A C21A,0.0913
20,A2G C3G,0.583
21,A2G C3A,0.171
22,A2G G41A,0.102
23,A2G G41U,0.0697
24,C3G G39C,0.0914

row,Variant,self-cleavage
1,C3G G39U,0.107
2,C3G G39A,0.0984
3,C3U C5U,0.315
4,C3U C5G,0.105
5,C3U C5A,0.219
6,A2U A40G,0.163
7,A2G A23G,0.0805
8,A2G A23U,0.0843
9,A2G A23C,0.0651
10,A2U C20G,0.0669
11,C3U G7U,0.0522
12,C3A C27A,0.148
13,C3A C27U,0.183
14,C3A A23C,0.0997
15,C3A A40C,0.0582
16,C3A C14G,0.0567
17,A2U G41U,0.157
18,A2C U37G,0.057
19,A2G G43U,0.119
20,A2G G43A,0.104
21,A2G G43C,0.122
22,C3G G36C,0.0943
23,C3G U18A,0.116
24,C3G U18G,0.0365

row,Variant,self-cleavage
1,A2G U12A,0.367
2,A2G U12G,0.252
3,C3A C19G,0.0471
4,A2G G48C,0.389
5,A2G G48U,0.255
6,A2G G36A,0.118
7,C3A A33G,0.0867
8,A2U G48C,0.67
9,A2U G48A,0.353
10,C3G A35G,0.317
11,C3G A35U,0.488
12,A2G U31A,0.328
13,A2G U31G,0.324
14,A2G U31C,0.3
15,C3G C21G,0.0504
16,C3G C21U,0.0445
17,C3A A32C,0.188
18,C3A A32U,0.278
19,C3A A32G,0.0493
20,A2U G39U,0.188
21,A2U G39C,0.18
22,A2U A4G,0.413
23,A2U A4U,0.0802
24,C3A G39A,0.0266

row,Variant,self-cleavage
1,C3A G39U,0.0737
2,C3U A40U,0.0995
3,C3U A40G,0.0544
4,A2G C46A,0.2
5,A2G C46G,0.431
6,A2G C26G,0.035
7,A2G C26U,0.08
8,A2G C26A,0.134
9,C3A U12G,0.159
10,C3A U12A,0.0973
11,C3A U37G,0.17
12,C3A G44C,0.207
13,C3A G44U,0.253
14,A2U C46G,0.53
15,C3A G38C,0.297
16,A2U G17A,0.131
17,C3G C26G,0.0704
18,C3A A34G,0.1
19,C3A A34U,0.252
20,A2C U12A,0.0702
21,A2C U12C,0.094
22,C3A U6G,0.121
23,C3A U6C,0.0414
24,A2U,0.738

row,Variant,self-cleavage
1,A2G,0.411
2,A2U C25A,0.0735
3,A2U C25G,0.0728
4,A2U C25U,0.169
5,C3A A10C,0.308
6,C3A G16U,0.141
7,A2U G43A,0.128
8,C3A G29C,0.184
9,C3A G17U,0.0649
10,C3A G17C,0.0654
11,A2U C26A,0.131
12,C3U A11G,0.438
13,C3U A11C,0.191
14,C3U A11U,0.428
15,C3U G13U,0.113
16,C3U G13C,0.168
17,A2U C19A,0.129
18,A2U C19U,0.163
19,C3A A22G,0.0923
20,C3A A22C,0.115
21,C3A C9U,0.0898
22,C3G A11U,0.762
23,A2U G36C,0.129
24,C3G G41U,0.142

row,Variant,self-cleavage
1,C3A G47A,0.245
2,C3A G47U,0.229
3,C3U A23G,0.101
4,C3U A23U,0.194
5,A2U G38A,0.789
6,A2U G38U,0.184
7,A2U G38C,0.252
8,A2G A30U,0.256
9,A2G A30C,0.23
10,C3A G41C,0.07
11,C3G C27A,0.0737
12,C3A C20G,0.0637
13,C3A C20A,0.0829
14,A2G G17A,0.113
15,A2G G17C,0.0381
16,C3U C15A,0.195
17,C3G A22C,0.481
18,C3G A22G,0.124
19,C3G A30C,0.167
20,A2C G48C,0.0956
21,C3A U18G,0.0709
22,C3A U18C,0.0738
23,C3A U18A,0.0528
24,C3A G7C,0.0682

row,Variant,self-cleavage
1,C3G U6C,0.0367
2,C3G U6G,0.015
3,C3G U6A,0.13
4,C3U C25U,0.238
5,A2U A30U,0.713
6,C3G G38U,0.607
7,C3G G38A,0.559
8,C3G G38C,0.449
9,C3U A34C,0.155
10,A2U G42U,0.172
11,A2U G42A,0.164
12,A2U G42C,0.134
13,A2U G47A,0.292
14,A2G C9A,0.104
15,A2G C9U,0.0996
16,A2U U12A,0.667
17,A2U U12G,0.557
18,A2U C5U,0.448
19,A2U C5G,0.172
20,A2U C5A,0.13
21,A2U A33C,0.457
22,A2U A33U,0.655
23,A2G G24A,0.082
24,A2G G24C,0.0995

row,Variant,self-cleavage
1,C3A G13A,0.207
2,C3A G13U,0.127
3,C3G C14G,0.0805
4,C3G C14A,0.418
5,C3G C14U,0.47
6,A2U U31A,0.605
7,A2U U31G,0.626
8,C3G C25A,0.0782
9,A2U A11U,0.75
10,A2U A11C,0.309
11,A2G C21U,0.0523
12,A2G C27A,0.0876
13,A2U C8G,0.0705
14,A2U C8U,0.109
15,A2U G24C,0.109
16,A2U G24A,0.112
17,A2C U31G,0.177
18,C3G G29A,0.348
19,A2U G16A,0.256
20,A2G C15A,0.136
21,A2G C15G,0.0529
22,A2G C15U,0.503
23,A2U C9U,0.133
24,A2U C9A,0.0899

row,Variant,self-cleavage
1,A2U A35C,0.745
2,C3U A4U,0.12
3,C3U A4C,0.106
4,C3G G43A,0.12
5,C3G G43U,0.124
6,C3G G43C,0.101
7,A2U A10U,0.604
8,A2U A10C,0.449
9,A2G U6A,0.192
10,C3G A10G,0.872
11,A2U G7C,0.0748
12,C3G U37C,0.18
13,C3G U37A,0.421
14,C3G U37G,0.478
15,C3G G13A,0.138
16,C3G G13C,0.124
17,A2G C14A,0.291
18,C3A C5G,0.265
19,C3A C5A,0.0993
20,C3A C5U,0.159
21,C3G C9G,0.139
22,C3G C9A,0.0934
23,C3U C27A,0.159
24,C3U C27G,0.0437

row,Variant,self-cleavage
1,C3U C27U,0.231
2,A2U G28U,0.519
3,A2G G38C,0.118
4,A2G G38A,0.448
5,A2G C25A,0.127
6,A2G C25G,0.0917
7,C3G G24A,0.0502
8,C3G G24U,0.0918
9,C3U C46A,0.338
10,C3A A11C,0.153
11,C3A A11U,0.212
12,C3G U31A,0.57
13,C3G U31C,0.347
14,A2G G45C,0.0901
15,A2G A4G,0.212
16,A2G A11C,0.206
17,A2G A11U,0.583
18,C3U A30U,0.397
19,A2U C15G,0.0661
20,A2U C15A,0.194
21,C3G G45U,0.31
22,C3A A4U,0.0689
23,C3A A4C,0.0653
24,A2G A35U,0.211

row,Variant,self-cleavage
1,A2G A35G,0.226
2,C3A G28U,0.144
3,C3A G28A,0.183
4,C3U C20U,0.308
5,A2U G45U,0.344
6,A2G G42A,0.148
7,C3U A35U,0.421
8,C3U A35C,0.493
9,A2U C14A,0.531
10,A2C U6A,0.0688
11,A2C U6G,0.0861
12,C3A G24C,0.0654
13,C3A A35C,0.315
14,C3A A35U,0.16
15,A2U U18G,0.0917
16,A2U U18A,0.0781
17,A2G U37C,0.0955
18,C3G C46G,0.568
19,C3G C46U,0.583
20,C3G C46A,0.624
21,C3G A40U,0.113
22,C3G A40C,0.12
23,C3U C21A,0.0567
24,C3U C21G,0.221

row,Variant,self-cleavage
1,C3A G45C,0.0823
2,C3A G45U,0.152
3,A2G C19G,0.121
4,A2G C19U,0.155
5,A2U C27U,0.357
6,A2U C27A,0.124
7,A2U C27G,0.126
8,A2G U18G,0.0967
9,A2G U18A,0.123
10,A2G G39U,0.122
11,A2G G39C,0.0951
12,C3G C8A,0.174
13,C3U A33G,0.361
14,A2U G29A,0.474
15,A2U G29U,0.484
16,A2G G47A,0.232
17,A2G G47U,0.117
18,C3G C19A,0.0808
19,A2G G13A,0.131
20,A2G G13C,0.0608
21,A2G G13U,0.0873
22,C3U G24U,0.0933
23,C3U G24C,0.0842
24,A2U A32U,0.722

row,Variant,self-cleavage
1,C3U C19A,0.0875
2,C3U C19U,0.374
3,C3A C46A,0.2
4,C3A C46G,0.117
5,C3A C46U,0.244
6,C3A A30C,0.225
7,C3A A30G,0.202
8,C3G G47C,0.149
9,C3G G44A,0.509
10,C3U C9U,0.253
11,C3A C25A,0.0581
12,C3A C25G,0.12
13,A2U U6A,0.185
14,A2U U6G,0.0884
15,A2G G16C,0.119
16,C3A G42U,0.0908
17,A2G C8U,0.194
18,A2G C8A,0.153
19,A2G C8G,0.0347
20,A2G G28A,0.269
21,C3U C26U,0.138
22,C3U C26G,0.0758
23,A2U A34G,0.292
24,A2C U18C,0.0934

row,Variant,self-cleavage
1,A2C U18G,0.0901
2,A2C U18A,0.0761
3,C3A C15U,0.108
4,C3A C15A,0.101
5,C3A C15G,0.0656
6,C3G A4U,0.13
7,C3G A4G,0.462
8,C3G A4C,0.114
9,C3G A32U,0.593
10,C3G A32C,0.379
11,A2U C21A,0.0621
12,A2U C21U,0.0725
13,A2U C21G,0.0765
14,C3U G28A,0.409
15,C3G C5G,0.101
16,C3G C5U,0.309
17,C3G C5A,0.117
18,C3G C20A,0.0892
19,C3A G48C,0.251
20,C3G A33U,0.526
21,A2U A22G,0.0815
22,A2U A22C,0.311
